A protein production outcome set (Wang et al. 2014)

Test: label from the status in PepcDB records
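Also: failed if final PepcDB status was selected cloned or expressed and not failed if soluble or beyond.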

Row | Sequence | protein production
1 | MITNAFNEYKNEYAFDNVYGHLIEILKRNLDISTESGVVHLDIGCGYGAIAEHITGEVGRVYVGIDANKSGLKSLKDRGFETHEHFLESQEDALSFFERVIGDRKLGSISMLDTLEHLPNGLSILKAIATLASKHSAMVAISVPNIQHRDIGFKLALGSIAYTDAGLLDHTHVMMYDYDHLDRVLRHAGLRICDQNHVRVNHSDQFFPRDHPVLQNATTIRTFLKYVRANVNDQDQINQFVVAALPCEPITGPTFEAVRDVDRPFLSIVTRTQGKRIHTLVEYFTCLAGQVCRDFEVFVVGHRLSLERQIAIEQVIEDLPLWLRDKTKLIRVDHGNRTHPLNVGFAQANGRYIAIHDDDDIPMGHWVDSFRKLAIENDGALLRCVSSLQHVETVSLRGRDGVRSIGKTGPFPSEFDFIQHLSGNYSPNNTLAFPRGVFHHLNMRFDENLTTTEDWDYIMRVASVVGVASSPEITGTYQWWEKGNSLAMHTDNEWALNKAWIQEKLDARPILIPAGTVRKILSLWEHANNVATQLDAVSHRNAIIEGQLGAMSQYDIDVQAQMKAISDHVNFLKSEIDRNRNEAVDQQYLLREIGDIIDSTSWKLSAPMRWPKRILGARSSRLTDHLGSSVQQLQETKRRLLSSRSWRATRPMRAVARLFKVHPI | failed
2 | MITQRQNDILNLIVELFTQTHEPVGSKALQRTIDSSSATIRNDMAKLEKLGLLEKAHTSSGRMPSPAGFKYFVEHSLRLDSIDEQDIYHVIKAFDFEAFKLEDMLQKASHILSEMTGYTSVILDVEPARQRLTGFDVVQLSNHDALAVMTLDESKPVTVQFAIPRNFLTRDLIAFKAIVEERLLDGSVMDIHYKLRTEIPQIVQKYFVTTDNVLQLFDYVFSELFLETVFVAGKVNSLTYSDLSTYQFLDNEQQVAISLRQSLKEGEMASVQVADSQEAALADVSVLTHKFLIPYRGFGLLSLIGPIDMDYRRSVSLVNIIGKVLAAKLGDYYRYLNSNHYEVH | failed
3 | MITQVNQLDELQLKDLKTLRAECKKNDGSIPNLYIHILKQHRSLPTSFLYYQNGALIGFLSIYFFYDDAVEVAVLVSPQYRRQGIAKQLIKEALPLIKSQNYFNLIFSCPSRLNDNWLTSKGFTYLHSEYFMERDDLNPILDYIR | not failed
4 | MITRLVLATAGAAVALGLPADVRAYEYEQEATTKLMTDMIVDLGGHDTVRRNSGKTVRCGDGGTRRVSIVRRGATTTYRGDYRNCRERGLTRDGFYEIVFKGDEIVSSTSKRSVNGELFDAAMAGNAAGVRKLIRARADVNYTESVDRTEGGTIDGVSPLMVATMAGSLDTVKLLVANGAWVNYLNSMAVNALWIAAHNGHPEIVRYLAGRGAYLNNSNVEDVTPLMAAAMNGHLAVVKFLVGAKADINAVHRDGDTALMFALAQNRTDIARFLIDAGADVAVRNRHGVTALLIAVAEGNEEIVRALLERKADVSVRTADGKSALDVARARGMDGIAKLLEAAGSY | failed
5 | MIVASRSPLPLAPPMLFPASDDDVPFDDAPRILLFTGKGGTGKTTCAAATAQHAARQGHKTLVLSSDPAHSLADALDQELGPEAREVRDRLFAQEVDLYYSMKKHWGHMRELMLTVFRWQGVDQIAAEELAALPGMNEGSVLLWLEEALREADYDLIVVDSAPTGETLTLLTLPQVTQWWLAKAFPFQKMAVKSLGFGVRKATGIPLDKGYEELEVIFEKLERVQQVLATPSTTSIRLVTNPEKMVIEEARRAFTYLQLYGYGVDSVVVNRVLPEEEVPADSFFEGYVESQREYLEEIEQSFRPLPILQVPHLGEEVFGAERLGRIGDAMYAERNPTDVFYDEPTFTVEEDGDAYVLNLRLAFATEADVDVRQLGDQLVVQVANQRSNVILPNFLNYYHMTNAALEEGWLRVRFTPDGEASSN | failed
6 | MIVAVESLDTSKKRKLHAEESDLLPLPKHFCSEHQASLVNSSCPSSVIDYAECSYAMENTKTSDEASSSASFTGPSLYMFKDSIYSTGSSSSGYAATSSIEQCFSKVDHKTQEDTQDFTHMEFIYHDSEFAVEDLQEVLNPVESYILSSARWSVSNQDSKEATTKPTIDQEFEQYFSTLMM | failed
7 | MIVFKAENLSVGYNGVKAVSNINFSAKQGEIICLLGPNGAGKTTIIRTLSGLLPPIEGEIHINGKSLSTINKKLLAQTLSVVLTEKPSFDVMTAFDVVSLGRFPHTGFFGTITKEHEIKVVEALKTVGALNLIDKYFHILSDGERQKVMLARALVQEPQIIILDEPTTHLDINHKIELLNTLKNLSRTAKLTVILSLHEIDLALKYCDKVMLVENKKVLSFGSPETTVNGETINKLYGIKNASFNPITSSIELKNSEKSNIYVIGGCGFGTPIYRLLSKYNLGFSTGILHENDIDYETAKTMSLRLQSEKPFQKISKISFEKALAAVASSDIIIDSGFPIGETNEKNLNLLNYAVEKNKRVITFRKYFNSTMSYCSNKDALIDFILRLEHHHHHH | failed
8 | MIVIEKLTVDMARGVENNLEGLQIFVAVAEAGGFTAAAERLGMTKANVSLQVGRLEAQLGATLFTRTTRRVKLTEAGQALYLDAQPALAALRDALLQAGHGAAELSGTLRLTAPVSHMAESVAPAATQFIRRHPGLQLELHAIDRMVDLVAEGMDLAIRLGTLRDSSLRALKLGEFAQQLVASPAYLRERGMPAHPGELAGHDWVALTLLKTPLTWRFAGAGGAEETVRMRARIKVDSAASLRSLLLAGAGMSVLDSFSVQEDLRQGRLIHLLPQWTLPKGGVYAVFPPGRHAPAAARAFVEFYRVLLARPV | failed
9 | MIVIYFFSTKSQQFFAYVWAIFPVIAFFLVSFYTLDFLFSPSYLIMVPVFTIMFKINYKKDYSFVALLKMSIRQFVISFLAFIASSSFSWSIILNSSVTFLIVYLFYSSATPMRYHSYLMMFTFCQLIQVKGNTFLMQSQVVAFLIGLFLLALTLNAWWQTGLRQLTSLKSRGHVRFFKSIQLNMKQQKLAVINFWHDLQQIFFGITSFKQFLESPDERVQRFRLAIRMSFTITLSFILMWSVGGIKIIWIPMNVFLLLHPVKAEMNTRIKTRFWGTLLGCFLSLFVVNWLQLPLTHLIVSSLIGIFVYALKPGTVLQVTMATIFGLCLATISLRGMYAAELRVSFVLLAIFVVCLIDLGLFVYQRILRF | failed
10 | MIVKCPICDGTGKKVVKYKTCPVCEGTGFIDEFSPKQHMKRVSKRATYDLDYGEIPCPKCKGTGKVPVYAKCDFCGGSGKVVKCDRCGAIIGKYPDFKDRTLCDKCLKEEEERKKGLRNVYVFDELATFYDVEPGKFYKGVVTRIEKYGAFINLNEQVRGLLRPRDMISLRLENLNVGDEIIVQAIDVRPEKREIDFKYIPLTTYDLVKYEKEVPLSQIKDISQNLVEMRDQVVHIRGEVVQIVQTPGPTVFTITDGTDFAWVAALEIAGLRAHPDVKVGDIVDVIGRVTIRDGRLQIERIKLQKLEGDEAEEIRKKIEEEIDRRAEPAKDIPFLVKSEVLERLRPKMADVAKRIRKAVLDGRPIIIRHHADTDGYCGGIALEKAILPIIDKFAIDVDAIWHFFKRRPSKAPFYELEDVTKDLVFSIEDALKFGQKLPLIVLIDNGSTDEDIPAISKAKAYGIEVIVIDHHFPGEVVDGKVEVDDYVDAHVNPYLVGGDSNLTAGVLGTEIARMINPDVEDEIKHIPGIAVVGDHAKGEEAEQYVKIALDRLNELSKKYGKGRTYDREYLEKIALCMDFEAFYLRFMDGKGIVDDILATNIKEFGRHEELIDILYEQAMKMVERQMKAVIPALKTEFLENGIILNTLDVEKYAHKFTFPAPGKTTGFAHDYIVQKYGEDKPIITLSYGPDFGVVRATDAVHEKYNFNLNLIVEQLMEEIPEASLDGGGHECAGSLKFVEGLRDKVIGRFIEIIKNMKPKEQ | failed
11 | MIVMSKNVDEAISRKEEKCIMSFIPNMITIANFVCGLLAIYAVFVHDIYLGAVFIITGMLFDFFDGMVARKLDSVSEIGGELDSFADLVTFGVAPSILAYSASLKDLQSIGMICALTYSICGMLRLARFNTQQSKLPTFIGMPIPFAAMCLLILCFLKNPVSVAFGTCVLAYLMVSKIKFPHFKKDIAESLKPGRLD | failed
